Publication PMC9927353

Biological target: FleQ (Pseudomonas aeruginosa PAO1) (UniProt G3XCV0)
Assay: EMSA

Sequence of FleQ (Pseudomonas aeruginosa PAO1) (G3XCV0 whole entry): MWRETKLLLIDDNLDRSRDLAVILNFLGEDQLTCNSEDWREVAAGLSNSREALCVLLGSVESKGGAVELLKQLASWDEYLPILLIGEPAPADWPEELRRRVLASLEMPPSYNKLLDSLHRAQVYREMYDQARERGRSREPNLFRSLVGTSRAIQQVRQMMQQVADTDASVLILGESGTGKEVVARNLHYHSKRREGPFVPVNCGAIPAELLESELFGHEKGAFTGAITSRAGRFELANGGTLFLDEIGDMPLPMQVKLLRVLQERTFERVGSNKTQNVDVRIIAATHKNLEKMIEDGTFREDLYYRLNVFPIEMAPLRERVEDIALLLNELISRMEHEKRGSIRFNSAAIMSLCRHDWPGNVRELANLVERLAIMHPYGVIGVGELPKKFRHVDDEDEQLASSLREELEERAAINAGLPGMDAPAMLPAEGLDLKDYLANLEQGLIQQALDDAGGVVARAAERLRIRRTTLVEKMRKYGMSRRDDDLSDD

For “GAGTTGCAGCCTTTCCTTGCCGTCAGCCATGGCGCACCTCCGGACGAGGGTACGCGCAGGGGTCTTCGAGATGGCTCATTATTCTTGTCTCCACTCTGTCAGAGGCCGTGTCTTGCGCACGGATGAGCGGATTATTGGCGGCGGATGTAAGACGCCGTTGAACGCGCGGATCGAAGATGTAAAAAGCTGTAAGGAAGTTGTTCGCCGCG (double strand) [lysP promoter (4981)]”, the binding was “binds”.
